From paper PMC8849102

Target: recombinant human ICAM-5 Fc Chimera (human) (UniProt Q9UMF0)
Assay: pull-down; ICAM-5 Fc chimera covalently attached to magnetic Dynabeads; incubated with the 1.11 (membrane-associated) or 1.20 g/cm^3 (naked) viral density fraction for 1 h at 33°C, then overnight at 4°C; beads rinsed 2x for 10 min in PBS; bound virus read as viral titer (TCID50) after PBS plus 0.1% NP-40; control: nonspecific antibody-coated beads

Chain of UniProt Q9UMF0 (Q9UMF0 32-835, stated change not applied): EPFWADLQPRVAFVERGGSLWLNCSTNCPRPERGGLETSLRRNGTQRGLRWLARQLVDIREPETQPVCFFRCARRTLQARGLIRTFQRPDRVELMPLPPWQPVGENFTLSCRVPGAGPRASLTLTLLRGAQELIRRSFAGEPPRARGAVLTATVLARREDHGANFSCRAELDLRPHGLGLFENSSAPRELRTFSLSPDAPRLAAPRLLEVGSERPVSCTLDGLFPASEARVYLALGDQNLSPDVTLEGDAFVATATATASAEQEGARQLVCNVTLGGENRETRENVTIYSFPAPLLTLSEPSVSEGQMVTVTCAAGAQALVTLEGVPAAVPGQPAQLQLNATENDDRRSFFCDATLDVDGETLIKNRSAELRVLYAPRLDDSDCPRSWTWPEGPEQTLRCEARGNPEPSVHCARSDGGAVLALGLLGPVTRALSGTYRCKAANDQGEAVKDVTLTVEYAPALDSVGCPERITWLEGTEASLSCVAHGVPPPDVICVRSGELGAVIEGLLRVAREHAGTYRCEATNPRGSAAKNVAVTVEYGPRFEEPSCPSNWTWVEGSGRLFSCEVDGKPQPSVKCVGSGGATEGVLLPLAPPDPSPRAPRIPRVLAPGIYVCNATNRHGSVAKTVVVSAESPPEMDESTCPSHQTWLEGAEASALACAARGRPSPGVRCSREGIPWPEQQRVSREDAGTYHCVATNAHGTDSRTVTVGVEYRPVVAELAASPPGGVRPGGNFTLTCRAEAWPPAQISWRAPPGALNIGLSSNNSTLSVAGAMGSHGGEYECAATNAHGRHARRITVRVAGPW

Substance: Enterovirus D68 (EV-D68) viral particles, strain US/MO/14-18947 (complex)
- fold viral titer immunoprecipitated over control beads: 1000 fold
